Data taken from the nanobody polyreactivity screen of Harvey et al. (2022).

Assay: yeast display, Sf9 membrane polyspecificity reagent, FACS + sequencing; frameworks hold sequencing errors
Method in brief: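 Sorting gates, low and high (top ~1%), were placed on anti-HA fluorescence to track expression and on streptavidin fluorescence to track reagent binding. A clone's polyreactivity label is taken from the gate it came out of. The reagent was 10% biotinylated, detergent-solubilized Sf9 membrane, applied for 1 hour at 4 °C to galactose-induced yeast display cells.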

QVQLVESCGCLVQAGCSLRLSCAASGSTFQGYAMGWYRQAPGKERELVAAITIRGTRTYYADSVKGRFTISRDNAKNTVYLQMNSLKPEDTAVYYCAAYDYRHLEDKYDYWGQGTQVTVSS
polyreactivity (PSR sort gate): high polyreactivity

QVQLVESGGGLVQAGGSLRLSCAASGITFTFYAMGWYRQAPGKERELVAAISRRGGSTYYADSVKGRFTISRDNAKNTVYLQMNSLKPEDTAVYYCAARGYRPMDYWGHGTQVTVSS
polyreactivity (PSR sort gate): high polyreactivity

QVQLVESGGGLVQAGGSLRLSCAASGFSFFKYAMGWYRQAPGKERELVAAISSSGGSTYYADSVKGRFTISRDNAKKTVYLQMNSLKPEDTAVYYCAVDNLKCRAQSLDGFDYWGQGTQVTVSS
polyreactivity (PSR sort gate): high polyreactivity

QVQLVESGGGLVQAGGSLRLSCAASGFTFARYAMGWYRQAPGKERELVAAISRGTTTYYADSVKGRFTISRDNAKNTVYLQMNILKPDDTAVYYCAAVTTRTYPGRYYYWGQGTQVTVSS
polyreactivity (PSR sort gate): high polyreactivity

QVQLVESGGGLVQAGGRLRLSCAASGAIFDRNVMGWYSQAPGQERELVAAISGSGGRTYYADSVKGRFTISRDNAKNTVYLQMNSLKPEDTAVYYCAARAFRVVPGGDYWGQGTQVTVSS
polyreactivity (PSR sort gate): high polyreactivity

QVQLVESGGGLVQAGGSLRLSCAASGSTIKTYATMGWYRQAPGKERELVAAITACTSTNYADSVKGRFTISRDNAKNTVYLQMNSLKPEDTAVYYGAADDYYNWYLGEPGDYWGQGTQVTVSS
polyreactivity (PSR sort gate): low polyreactivity

QVQLVESGGGLVQAGGSLRLSCAASGRTFDAYAMGWYRQAPGKERELVAAISSGGSTNYADSVKGRFTISRDHAKNTVYLQKNSLKPEDTAVYYCAAEYIQYLFYSVRVAYDYWGQGTQVTVSS
polyreactivity (PSR sort gate): low polyreactivity

QVQLEESGGGLVQAGGSLRLSCAASGSNFYLNDMGWYRQAPGKEREFVAAIDSRGTSTYYADSVKGRFTISRDNAKNTVYLQMNSLNPEDTAVYYCAADSYALEYDYWGQGTQVTVSS
polyreactivity (PSR sort gate): low polyreactivity

QVQLVDSGRGLVQAGGSLRLSCAASGGTFARNAMGWYRQAPGKERELVAAIRGGVSTNYADSVKGRFTISSDNAKNTVYLQMNSLKPEDTAVYYCNASPPTLEGYWGQGTQVTVSS
polyreactivity (PSR sort gate): low polyreactivity

QVQLEESGGRLVQEGGSLRLSCAASGYIFQGNAMGWYTPAPGKERELVAAITSSGGRTYYADSVKGRFTISRDNAKNTVYLQMHSLKPEDTAVYYCAAKSVRRGGGEYWGEGTQVTVSS
polyreactivity (PSR sort gate): high polyreactivity

QVQLVESGGGLVQAGGSLRLSCAASGGTFTRYAMGWYRQAPGKEREFVAAISGSGGSTYYADSVKGRFTISRDNAKNTVYLQMNSLKPEDTAVYYCNKVPVYPPSYYWGQGTQVTVSS
polyreactivity (PSR sort gate): low polyreactivity

QVQLVESGGGLVQAGGSLRLSCAASGRIFPVYAMGWYRQAPGNERELVAAITSGVGSTYYADSVKGRFTISRDNAKNTVYLQMNSLKPEDTAVYYCAADSSYLTYWEYDYWGQGTQVTVSS
polyreactivity (PSR sort gate): low polyreactivity

QVQIEESGGGLVQAGGSLRLSCAASGSIFVVYALGWYRPAPGKERELVAGISRNGGRTYYADSVKGRFTISRDNAKITVYLQMNILKPEDTAVYYCNAYRPSRHDYWGQGTQVTVSS
polyreactivity (PSR sort gate): high polyreactivity

QVQLVESGGGLVQAGGSLRLSCAASGSTFDYYDMGWYRQAPGKERELVATITSGGSTNYADSVKGRFTISRDNAKNNVYLQMNILKTEDTAVFYCASDIGGDGEGYDYWGQGTQVTVSS
polyreactivity (PSR sort gate): low polyreactivity

QVQLVESGGGLVQAGGSLRLSCAASGSIFEVNAMGWYRQAPGKERELVAAISFSGDSTYYADSVKGRFTISRDNAKNTVYLQMNSLKPEDTAVYYCAAEQYVAWIDYLYDYWGQGTQVTVSS
polyreactivity (PSR sort gate): high polyreactivity

QVQIVESGGGLVQAGGSLRLSCAASGRTVKFYAMGWYRQAPGKERELVARITSNSGSTYYADSVKGRFTISRDNAKNTVYLQMNSLKPEDTAVYYCAARGRYRQFNYWGQGTQVTVSS
polyreactivity (PSR sort gate): high polyreactivity

QVQLVESGGGLVQAGGSLRLNCAASGSTFGYYAMGWYRQAPGKQRELVAAITSGASTNYADSVKGRFTISRDNAKNTVYLLMNSLKPEDTAVYYCSAGFQTRTPLNEFDYWGQGTQVTVSS
polyreactivity (PSR sort gate): low polyreactivity

KVQLVESGGGLVQAGGSLRLSCAASGGTFSYNAMGWYRQAPGKERELVAAISWSGTRTYYADSVKGRFTISRDNAKNTVYLQMNSLKPEDTAVYYCNKPPPNRGRYDYWGQCTQVTVSS
polyreactivity (PSR sort gate): low polyreactivity

QVQLVESGGGLVQAGGSLRLSCAASGSIFTKYAMGWYRQAPGKERELVAAISQGGASTRYADSVKGRFTISRDNAKNTVYLQMNSLKPVDTADEYCAAKSRHFWMDYWGQGTQVTVSS
polyreactivity (PSR sort gate): high polyreactivity

QVQLVESGGGLVQAGGSLRLSCAASGRTFDHNAMGWYRQAPGKERELVAAINSSGGRTYYADSVKGRFTISRDNAQNTVYLQMNSLQPEDTAVYYCATVNVRGPPYDYWGQGTQVTVSS
polyreactivity (PSR sort gate): high polyreactivity

QVQLVESGGGLVQAGGSLRLSCAASGRTFGWNVMGWYRQAPGKERELVAAISGGGTSTYYADSVKGRFTISRDNAKNTVYLQMNSLKPEDTGVYYCNAYYPGSYYPRSGRYDYWGQGTQVTVSS
polyreactivity (PSR sort gate): high polyreactivity

QVQLVESGGGLVQAGGSLRLSCAASGSIFRYYAMGWYRPATGKERELVADITSSGGSTYYADSVKGRFTISRDNPKNTVYLQMNSLKREDTAVYYCASLYWFYVYPFTEYDYWGQGTQVTVSS
polyreactivity (PSR sort gate): low polyreactivity

QVQLVESGGGLVQAGGSLRLSCAASGRIYGGNAKGWYRQAPGKEREFVAAITWRGGTTYYADSVKGRFTISRDNAKNTVYLQMNSLKPEDTAVYYCNALRYTRNTGYDYWGQGTQVTVSS
polyreactivity (PSR sort gate): high polyreactivity

QVQLVESGGGLVQAGGSLRLSCAASGRILTSNAMGWYRQAPGKERELVAAISWSGGSTYYADSVKGRFTISRDNAKNTVYLQMNILKPEDTAVYYCAAPLYWVDDFESGWRYYYWGQGTQVTVSS
polyreactivity (PSR sort gate): low polyreactivity

QVQLVESGGGLVQAGGSLRLTCAASGSIVWYAMGSYRQATGKEREVVAAISRRGGSTYYADSVKGRFTISRDNAKNTVYLQSKSLKSEDTAVYYCADRPAREEYDYWGQGTQVTVSS
polyreactivity (PSR sort gate): high polyreactivity

QVQLVESGGGLVKAGASLRLSCAASGRTFRHNARGWYRQAPGKERELVAAITIGTNTYYADSVKGRFTISRDNAKNTVYLQMNSLKPEDTEVYYCAAVKDRYAYVPPRFDYWGQGSQVTVSS
polyreactivity (PSR sort gate): low polyreactivity

QVQLVESGGGLVQAGGSLRLSCAASGSIFTLYAMGWYRQAPGKDRELVATINWSGGSTSYADSGKGRFTISRDNAKNTVYLQMNSLKPEETAVYYCARLGTYTVVTYDYWGQGTQVTVSS
polyreactivity (PSR sort gate): low polyreactivity

QVQLVESGGGLVQAGGSLRLSCAASGRTFTYYAMGWYIQAPGKEREFVASISLSGGRTYYADSVKGRFTISRDNAKNTVYLQMNSLKPEDTAVYYCNAYYPRVDRYDYWGQGTQVTVSS
polyreactivity (PSR sort gate): low polyreactivity

QVQLVESGGGLVQAGGSLRLSCAASGRIFYPNVMGWYRQAPGKERELVAAISASGGRTYYADSVKGRFTISRDNAKNTVYLQMNSLKPEDTAVYYCAADTVPSTRSWDTRYWEYEYWGQGTQVTVSS
polyreactivity (PSR sort gate): low polyreactivity

QVQLVESGGGLVQAGGSLRLSCAASGRTFGLNAMGWYRQAPGKDRELVAAISSSGGSTYYADSVKGRFTISRDNAKNTVYLQKNSLKPEDTAVYYCAKGLYRYGTAYYYWGQGTQVTVSS
polyreactivity (PSR sort gate): high polyreactivity

QVQLVESGGGLVQAGGSLRLSCAASGSTFGGYAMGWYRQAPGKEWELVAAISWNGDSTYYADSVKGRFTISRDNAKNTVYLQMNSLKPEDTAVYYCAAPYSGPYRSYEYYWGQGTQVTVSS
polyreactivity (PSR sort gate): low polyreactivity

QVQLVESGGGLVQAGGSLRLSCAASGSIFHANAMGWYRQAPGKERELVAVISQGGGSTYYADSVKGRFTISRDNAKNTVYLQMNSLKPEDTAFYYCAAYYYYSAYGDDYWGQGTQVTVSS
polyreactivity (PSR sort gate): high polyreactivity

QVQLVESGGGLVQAGGSLSLSCAASGRTFGSYAMGWYRQAPGKERELVAAITGSGGSTYYADSVKGRFTISRDNAKNNVYLQMNSLKPEDTAVYYCRYLFGYIAMDYWGQGTQVTVSS
polyreactivity (PSR sort gate): low polyreactivity

QVQLVESGGGLVQAGGSLRLSCAASGSTFRYNAMGWYRQAPGKVRQLVAAIDKRGDSTYADSVKGRFTISRDNAKNTVYLQMNSLKPEDTAVYYCAADSDSKYNYGFLWDTYEYWGQGTQVTVSS
polyreactivity (PSR sort gate): low polyreactivity

QVQLVESGGGLVQAGGSLRLSCAASGSIFPPYVMGWYRQAPGKERELVASITTSGGSTYYADSVKGRFTISRDNAKNTVYLQIKSLKPEDTAVYYCAARWYYGGKSAGPGGGYWGQGTQVTVSA
polyreactivity (PSR sort gate): low polyreactivity

QFQLVESGGGLVQAGGSLRLSCAASGFTFYYYTMGWYRQAPGKERELVAAITWRGGSTNYADSVKGRFTISRDNAKNTVYLQMNSLKPEDTAVYYCAAVTYWFWPGMDYWGQGTQVTVSS
polyreactivity (PSR sort gate): low polyreactivity

QVQHVESGGGLVQAGGSLRLSCAASGSTFAYNDMGRYRQAPGKERELVADIRSGGNTNYADSVKGRFTISRDNAKNTVYLQMNSLKPEDTAVYYCATDGYRIDVYHPDYRYDYWGQGTQVTVSS
polyreactivity (PSR sort gate): low polyreactivity

QVQLVESGGGLVQAGGSLRLSCAASGFTFRSYTMGWYRQAPGKERELVARITRSCGNTYYADSVKGRFTISRDNAKNTVYVQMNSLKPEDTEGYYCASVYWGKYSAGNLLEYDYWGQGTQVTVSS
polyreactivity (PSR sort gate): high polyreactivity

QVQLVESGGGLVQAGGSLRLSCAASGRTITKYVMGWYRHAPGKERELVAAITSSGSSTYYADSVKGRFTISRDNAKNTVYLQMNSLKPEDTAVYYCAARRGAPFARQYDYWGQGTQVTVSS
polyreactivity (PSR sort gate): high polyreactivity

QVQLVESGGGLVQAGGSLRLSCAASGFIFYANAMGWYRQAPGKERELVAAITWSGSRTYYADSVKGRFTISRDNAKNTVYLQMNSLKPEDTAVYYCNKDWYVGSFGYPEDYWGQGTQVTVSS
polyreactivity (PSR sort gate): low polyreactivity

QVQLVESGGGLGQAGGSLRLSCAASGLIIQPNAMGWYSPAPGKERELVAAISSSDGSTYYADSVKGRFTISRDNAKNTVYLQMNSLKREDSAVYYCAAGYYFQVEPDLVYIYSYEYWGQGTHVTVSS
polyreactivity (PSR sort gate): low polyreactivity

QVQLVESGGGLVQAGGSLRLSCAASGFTFYRYVMGWYRQAPGKERELVAAISWNGGRTYYADSVKGRFTISRDNAKNTVYLQMNSLKPEDTAVYYCAAVPGSRSYGGDYWGQGTQVTVSS
polyreactivity (PSR sort gate): high polyreactivity

QFQLVESGGGLDQAGGSLRLSCAASGSIFWYYAMGWYRQAPGKERELVAAISISGSTYYADSVKGRFTISRDNAKNTVYLQMNSLKPEDTAVYYCAARKFFWRSNYDYWGQGTQVTVSS
polyreactivity (PSR sort gate): low polyreactivity
